Here are results for 1 substance from paper PMC7531118, “Investigating host-microbiome interactions by droplet based microfluidics” (Microbiome, 2020).

The subject of data set [1] is CC(=O)N[C@H]1[C@H](Oc2ccc([N+](=O)[O-])cc2)O[C@H](CO)[C@@H](O)[C@@H]1O. The data set is described as follows: purified protein. Conditions: citrate buffer pH 5.5, 0.25 to 1.5 mM substrate, 30.0 °C.
Data set [2] deals with CC(=O)N[C@H]1[C@H](Oc2ccc([N+](=O)[O-])cc2)O[C@H](CO)[C@H](O)[C@@H]1O. The data set is described as follows: purified protein. Conditions: citrate buffer pH 5.5, 0.25 to 1.5 mM substrate, 30.0 °C.

The Km is the concentration of substrate that gives half-maximal velocity. As usually defined, the kcat is the maximal rate divided by the concentration of active sites. What is called kcat/Km is the second-order rate constant that governs catalysis at low substrate concentration. “Uhgb_GH123 (Phocaeicola plebeius DSM 17135)”: in data set [1], the Km is recorded as 3.87 ± 0.27 mM, the kcat is 0.33 ± 0.02 s⁻¹ and the kcat/Km is 85 M⁻¹ s⁻¹. In data set [2], the Km is reported as 1.17 ± 0.10 mM, the catalytic constant (kcat) came out at 21.2 ± 1.18 s⁻¹ and the specificity constant (kcat/Km) turned out to be 18200 M⁻¹ s⁻¹.
